Measured values: patent US20100316632A1

What was measured:
[1] = molecular target: CD40 receptor (human), on CD14+ monocytes (human) (UniProt P25942)
[2] = molecular target: CD40 receptor (human), on CD14+ monocytes (human) (UniProt P25942); remark: listed apart in the source

TNF-α production by CD14+ monocytes (ELISA of supernatant after 24 h) [1]: 449 pg/mL | IL-1β production by purified CD14+ cells of MDS patients (ELISA) [2]: 18 pg/mL | IL-6 production by purified CD14+ cells of MDS patients (ELISA) [2]: 1210 pg/mL | IL-10 production by purified CD14+ cells of MDS patients (ELISA) [2]: 1650 pg/mL
Substance: clone 64 (agonist anti-human CD40 monoclonal antibody, PanGenetics, The Netherlands)
